Columns and labels:
[1] = target: T1, SIRPa variant 1 on human monocytes (homozygote v1/v1) (human, UniProt P78324 31-504); assay: flow cytometry on human monocytes (SIRPa v1/v1)
T1 construct: the target on the cells is SIRPa v1; also called human monocytes v1/v1; SIRPa v1
Experimental: FIG. 7. Binding analysis of antibodies on human monocytes (homozygote for SIRPa variant 1 (v1/v1)). […] Revelation was performed with a PE labeled mouse anti-human Fc mAb on CantoII cytometer, values corresponding to percentage of stained monocytes.

[2] = target: T2, Recombinant hSIRPg-His (Sino Biologicals, reference 11828-H08H) (human, UniProt Q9P1W8 29-360); assay: Blitz, hSIRPg-His on Ni-NTA biosensor
T2 construct: Bought recombinant protein; also called human SIRPg recombinant protein; not shown: histidine tail
T2 sequence (Q9P1W8 29-360): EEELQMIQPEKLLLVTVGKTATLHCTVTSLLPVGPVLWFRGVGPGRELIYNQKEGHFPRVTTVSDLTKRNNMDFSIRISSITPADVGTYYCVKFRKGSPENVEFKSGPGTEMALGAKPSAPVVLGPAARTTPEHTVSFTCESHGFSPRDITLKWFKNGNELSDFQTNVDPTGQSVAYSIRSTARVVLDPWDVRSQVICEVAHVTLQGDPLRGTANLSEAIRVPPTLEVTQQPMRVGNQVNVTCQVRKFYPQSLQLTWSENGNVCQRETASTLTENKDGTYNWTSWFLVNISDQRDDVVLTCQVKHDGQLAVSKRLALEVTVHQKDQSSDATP
Experimental: This method was performed with a Blitz (Forté Bio; USA; reference C22-2 No 61010-1). Recombinant hSIRPg-His (Sino Biologicals, Beijing, China; reference 11828-H08H) was immobilized at 10 μg/ml by histidine tail into a Ni-NTA biosensor (Forte Bio; USA; reference 18-0029) for 30 seconds. Then, an antibody was associated at 20 μg/mL for 120 seconds. The dissociation of antibody was made in kinetics buffer for 120 seconds. Analysis of data was made with the Blitz pro 1.2 software, which calculated association constant (ka) and dissociation constant (kd) and determined the affinity constant KD […].

T1 sequence (P78324 31-504 limits assumed, change not shown): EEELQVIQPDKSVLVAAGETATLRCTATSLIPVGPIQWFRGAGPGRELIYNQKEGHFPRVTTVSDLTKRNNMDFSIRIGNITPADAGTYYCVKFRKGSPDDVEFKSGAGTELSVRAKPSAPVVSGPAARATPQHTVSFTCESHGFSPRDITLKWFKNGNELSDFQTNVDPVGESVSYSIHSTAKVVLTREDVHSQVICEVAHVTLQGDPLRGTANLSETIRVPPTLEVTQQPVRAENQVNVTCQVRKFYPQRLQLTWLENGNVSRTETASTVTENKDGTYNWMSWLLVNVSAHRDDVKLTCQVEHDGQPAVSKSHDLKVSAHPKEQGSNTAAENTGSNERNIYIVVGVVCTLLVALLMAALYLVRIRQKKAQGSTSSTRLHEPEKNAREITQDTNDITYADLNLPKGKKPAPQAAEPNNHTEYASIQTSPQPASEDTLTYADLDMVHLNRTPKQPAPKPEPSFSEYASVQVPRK

B1: Kwar23 (antibody, V domains shown)
VH: EVQLQQSGAELVKPGASVKLSCTASGFNIKDYYIHWVQQRTEQGLEWIGRIDPEDGETKYAPKFQDKATITADTSSNTAYLHLSSLTSEDTAVYYCARWGAYWGQGTLVTVSS
VL: QIVLTQSPAIMSASPGEKVTLTCSASSSVSSSYLYWYQQKPGSSPKLWIYSTSNLASGVPARFSGSGSGTSYSLTISSMEAEDAASYFCHQWSSYPRTFGAGTKLELK
notes: Commercial antibody (Creative Biolabs, Cat. No TAB-453CT); also called TAB-453CT (Creative Biolabs)
Question: Does B1 bind [1]?
Answer: binds

Question: Does B1 bind [2]?
Answer: binds

— patent US20190382483A1 (OSE IMMUNOTHERAPEUTICS, published 2019)
